Measurements from patent US20240076389A1.

Experiments:
[1] = biological target: mouse AXL extracellular domain (Sino cat. 51026-M08H) (mouse) (UniProt Q00993); experiment: ELISA on coated AXL ECD (100 ng/well)
[2] = biological target: recombinant human AXL extracellular domain, C-terminally His8-tagged (rhAXL-ECD) (human) (UniProt P30530); experiment: ELISA on coated AXL ECD (100 ng/well)
[3] = biological target: cyAXL-ECD displayed on yeast; experiment: yeast surface display ELISA, non-denatured yeast, goat anti-human F(ab')2-HRP
[4] = biological target: huAXL-ECD displayed on yeast (human) (UniProt P30530); experiment: as above
Sequence of huAXL-ECD displayed on yeast (human) (P30530 26-449, form in doubt): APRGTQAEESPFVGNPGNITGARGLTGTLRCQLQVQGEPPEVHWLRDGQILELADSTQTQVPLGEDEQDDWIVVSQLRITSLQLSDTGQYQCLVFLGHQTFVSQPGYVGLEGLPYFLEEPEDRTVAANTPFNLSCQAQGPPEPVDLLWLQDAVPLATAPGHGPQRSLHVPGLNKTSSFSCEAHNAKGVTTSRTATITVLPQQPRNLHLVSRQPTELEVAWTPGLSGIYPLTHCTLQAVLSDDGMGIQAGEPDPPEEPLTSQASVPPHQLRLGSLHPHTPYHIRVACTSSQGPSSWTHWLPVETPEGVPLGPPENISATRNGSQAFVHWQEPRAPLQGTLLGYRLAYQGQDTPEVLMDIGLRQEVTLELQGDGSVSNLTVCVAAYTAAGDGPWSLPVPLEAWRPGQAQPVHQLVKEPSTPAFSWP

[5] = biological target: huMER-ECD displayed on yeast (human) (UniProt Q12866); experiment: as above
Sequence of huMER-ECD displayed on yeast (human) (Q12866 21-505): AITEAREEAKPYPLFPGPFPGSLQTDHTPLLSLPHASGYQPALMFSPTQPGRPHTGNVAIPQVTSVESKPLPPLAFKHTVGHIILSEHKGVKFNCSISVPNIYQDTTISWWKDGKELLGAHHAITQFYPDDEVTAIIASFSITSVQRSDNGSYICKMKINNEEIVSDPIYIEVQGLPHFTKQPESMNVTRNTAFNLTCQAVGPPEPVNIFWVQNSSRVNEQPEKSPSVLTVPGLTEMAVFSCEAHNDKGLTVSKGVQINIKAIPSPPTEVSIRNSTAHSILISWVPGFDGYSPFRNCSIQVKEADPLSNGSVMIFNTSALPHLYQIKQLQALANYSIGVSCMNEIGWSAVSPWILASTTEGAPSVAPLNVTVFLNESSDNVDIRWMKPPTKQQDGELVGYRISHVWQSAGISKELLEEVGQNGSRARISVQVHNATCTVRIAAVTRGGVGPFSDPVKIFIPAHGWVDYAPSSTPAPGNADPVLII

[6] = biological target: huTyro3-ECD displayed on yeast (human) (UniProt Q06418); experiment: as above
Sequence of huTyro3-ECD displayed on yeast (human) (Q06418 41-429): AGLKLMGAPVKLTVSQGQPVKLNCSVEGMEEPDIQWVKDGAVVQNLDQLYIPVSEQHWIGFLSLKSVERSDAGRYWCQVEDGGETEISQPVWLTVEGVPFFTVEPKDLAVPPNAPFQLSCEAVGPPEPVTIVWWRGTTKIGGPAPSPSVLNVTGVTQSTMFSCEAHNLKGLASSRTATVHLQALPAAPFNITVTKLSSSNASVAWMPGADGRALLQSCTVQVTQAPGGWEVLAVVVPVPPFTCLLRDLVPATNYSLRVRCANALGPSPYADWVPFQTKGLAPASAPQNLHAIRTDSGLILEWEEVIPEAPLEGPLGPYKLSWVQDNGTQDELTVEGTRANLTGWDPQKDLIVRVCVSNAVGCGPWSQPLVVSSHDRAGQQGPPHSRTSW

Sequence of recombinant human AXL extracellular domain, C-terminally His8-tagged (rhAXL-ECD) (human) (P30530 other isoform, or with tags, fused parts or gaps limits assumed): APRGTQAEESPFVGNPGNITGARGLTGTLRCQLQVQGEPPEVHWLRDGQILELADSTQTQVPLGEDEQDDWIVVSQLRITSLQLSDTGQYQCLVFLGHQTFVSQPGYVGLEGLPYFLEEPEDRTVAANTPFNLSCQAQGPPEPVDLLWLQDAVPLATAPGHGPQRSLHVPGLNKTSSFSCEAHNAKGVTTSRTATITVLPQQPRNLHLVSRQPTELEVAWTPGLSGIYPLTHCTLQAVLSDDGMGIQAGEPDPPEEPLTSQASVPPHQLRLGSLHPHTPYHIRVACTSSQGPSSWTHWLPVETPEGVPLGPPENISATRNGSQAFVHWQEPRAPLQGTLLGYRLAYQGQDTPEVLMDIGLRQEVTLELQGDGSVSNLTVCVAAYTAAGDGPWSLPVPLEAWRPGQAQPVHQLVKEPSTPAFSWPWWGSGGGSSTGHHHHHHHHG
Sequence of mouse AXL extracellular domain (Sino cat. 51026-M08H) (mouse) (Q00993 19-445, stated change not applied): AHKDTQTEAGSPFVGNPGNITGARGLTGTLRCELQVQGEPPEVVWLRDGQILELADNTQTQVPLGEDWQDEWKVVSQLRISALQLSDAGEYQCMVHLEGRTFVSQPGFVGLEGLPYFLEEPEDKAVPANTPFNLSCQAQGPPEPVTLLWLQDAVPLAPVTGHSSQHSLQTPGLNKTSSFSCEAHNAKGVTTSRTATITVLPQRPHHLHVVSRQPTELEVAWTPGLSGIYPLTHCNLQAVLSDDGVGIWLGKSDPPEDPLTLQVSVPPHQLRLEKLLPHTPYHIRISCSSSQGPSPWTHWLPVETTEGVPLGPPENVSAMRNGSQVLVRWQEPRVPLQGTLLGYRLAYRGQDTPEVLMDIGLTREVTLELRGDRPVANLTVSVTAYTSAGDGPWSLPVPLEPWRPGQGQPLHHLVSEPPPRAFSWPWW

Substance	EC50 [1] [nM]	EC50 [2] [nM]	yeast ELISA signal normalized to myc expression level [3]	yeast ELISA signal normalized to myc expression level [4]	yeast ELISA signal normalized to myc expression level [5]	yeast ELISA signal normalized to myc expression level [6]
MAB8541 (R&D Systems), commercial anti-mouse AXL mAb, clone 175128, rat IgG2A (antibody)	1	61	–	–	–	–
hFC-anti-RSV (antibody)	–	–	-0.004	0.087	-0.001	0.059
